Data as given in patent US12398199 (SYSVAX, dated 2025).
Positions count from the first letter of the chain named.

B1: NBS1-2 (VHH)
VHH: QVQLVESGGGLVQAGDSLRLACAATGRTLSNYIMGWFRQAPGKEPLFVAAISRSGVITKYADSVEGRFTISRDNAKNTAYLQMTSLEPEDTAVYYCAASSSKYMATREYDYWGQGTQVTVSS
notes: also called XBS1-2; nano antibody NBS1-2
B2: NBS1-3 (VHH)
VHH: QVQLVESGGGLVQPGASLRLSCAASGRTFSSTGMGWFRQAPGKEREFVAAISGDGDTTYYADSVKGRFTISRDNAKNTVYLQMNSLKPWDTAVYYCASTRFTWGLYSDFVNSYEYDAWGQGTPVTVSS
notes: also called nano antibody NBS1-3
B3: NBS1-57 (VHH)
VHH: B2 VHH with S21F, A23V, D54P, A61V, W89E, T99A, R100G, D116N, A117Y
notes: also called nano antibody NBS1-57
B4: NBS1-10 (VHH)
VHH: B2 VHH with A16G, A40G, W89E, T99A
notes: also called nano antibody NBS1-10

These binders were tested against antigen RBD-FC protein (SARS-CoV-2 RBD protein) (SARS-CoV-2, UniProt P0DTC2 319-541) (assay: thin film interference (Gator), RBD-Fc captured on anti-human Fc probe, nano antibody in solution).
Experimental: In this example, an instrument Gator® probe life was used to detect an intermolecular interaction with a thin film interference method. A sample to be detected with a concentration not less than 80% and an antigen RBD-FC protein (SARS-CoV-2 RBD protein) with a concentration not less than 90% were prepared.
2. Experimental Method: 1) Detection method of NBS1-2 sample: the nano antibody was detected with an immobilized antigen RBD-Fc (100 nM); the probe type used was the anti-human Fc antibody; and the NBS1-2 was diluted to 60,000 nM, 30,000 nM, 15,000 nM, 7,500 nM, 3,750 nM, 1,875 nM, 937.5 nM, and 0 nM with the Q buffer. 2) Detection method of NBS1-3 sample: the nano antibody was detected with the immobilized antigen RBD-Fc (100 nM); the probe type used was the anti-human Fc antibody; and the NBS1-3 was diluted to 25 nM, 12.5 nM, 6.25 nM, 3.18 nM, 1.56 nM, 0.78 nM, and 0 nM with the Q buffer. 3) Detection method of NBS1-10 sample: the nano antibody was detected with the immobilized antigen RBD-Fc (100 nM); the probe type used was the anti-human Fc antibody; and the NBS1-10 was diluted to 25 nM, 12.5 nM, 6.25 nM, 3.18 nM, 1.56 nM, 0.78 nM, and 0 nM with the Q buffer.
4) Detection method of NBS1-57 sample: the nano antibody was detected with the immobilized antigen RBD-Fc (100 nM); the probe type used was the anti-human Fc antibody; and the NBS1-57 was diluted to 25 nM, 12.5 nM, 6.25 nM, 3.18 nM, 1.56 nM, 0.78 nM, and 0 nM with the Q buffer.

Binder | Kd | koff | kon
B1 | 1410 nM | 0.00127 s⁻¹ | 895 M⁻¹ s⁻¹
B2 | 0.0301 nM | 7.16e-05 s⁻¹ | 2.38e+06 M⁻¹ s⁻¹
B3 | 1.29 nM | 0.00491 s⁻¹ | 3.8e+06 M⁻¹ s⁻¹
B4 | 1.31 nM | 0.00311 s⁻¹ | 2.37e+06 M⁻¹ s⁻¹
